Results on 1 protein are retold here after paper PMC11811200.

Substrate in this series: Oc1cc(O)c2c(c1)O[C@H](c1ccc(O)c(O)c1)[C@@H](O)C2
Kind of series: purified protein. The settings on record: 100 mM acetate buffer pH 5.0, 28 °C, 5-300 μM substrate.

B1: SmLAC1 (recombinant MBP-SmLAC1) (Salvia miltiorrhiza) (protein)
chain: MERSLMFSAWVLALLVCLSSFASAAIVEHTFHVKNLTVNKLCRNQVITAVNGSLPGPTLRVHEGDTLVVHVFNKSPYNLTIHWHGIFQILSGWADGPEFATQCPIRPGQSYTYRFNITGQEGTLWWHAHVGWLRATVYGALVIRPRSGHSFPFPKPHREIPIVLGEWWNANVIDVENQALATGAAPNLSDAYTINGHPGNLYPCSSNDTFRLTVVHGKTYLLRIINAALNNQLFFKIANHNLTVVAVDASYTNPYTTDVVLVAPGQTTDVLLTADQTPARYYMAASAYQSAAGVPFDNTTTTGIVAYSGTTPSAPIMPLLPAFNDTPTAHRFFSNLTALVSSRFWAPVPRHVDERMFVTIGLGLSACDLPQCQGPFGLKLAASMNNASFQFPTRLSMLEAFFRGVGGIYTADFPDNPPVRFDYTNSSNSLNQALLNTTKSTKVKKVRFNSTVEVVLQNTAFLGVENHPIHLHGFNFYVLAQGFGNYNPALDTRKFNFVNPQERNTIGVPVGGWAVIRFRANNPGVWLIHCHLDVHLPWGLATAFVVENGPTPATTLPPPPADFPKC
Usually Km stands for the substrate concentration at which the rate is half of its maximum. As to B1, the Km was 21.2 µM.
